Test results published in patent US20100233188A1 (YEDA RESEARCH AND DEVELOPMENT, published 2010).

Legend:
[1] = target: T1, MT1-MMP (MMP-14) catalytic domain (UniProt P50281 112-284, limits assumed); assay: cell-based or functional assay
[2] = target: TNF-alpha-converting enzyme (TACE, ADAM-17) (UniProt P78536 215-671, limits assumed); assay: cell-based or functional assay
[3] = target: T1, MT1-MMP (MMP-14) catalytic domain; assay: in-vitro fluorescence enzymatic activity assay with peptide substrate
[4] = target: T2, MMP-9 catalytic domain (recombinant catalytic fragment without the hemopexin and pro domain, APMA activated) (human, UniProt P14780 20-707); assay: inhibition of fluorogenic peptide cleavage, fit assuming competitive inhibition; MMP-9 catalytic domain (FIG. 5)
T2 construct: domain: catalytic fragment (without the hemopexin and pro domain); also called MMP-9 recombinant catalytic fragment; MMP9 catalytic fragment
T2 sequence (P14780 20-707): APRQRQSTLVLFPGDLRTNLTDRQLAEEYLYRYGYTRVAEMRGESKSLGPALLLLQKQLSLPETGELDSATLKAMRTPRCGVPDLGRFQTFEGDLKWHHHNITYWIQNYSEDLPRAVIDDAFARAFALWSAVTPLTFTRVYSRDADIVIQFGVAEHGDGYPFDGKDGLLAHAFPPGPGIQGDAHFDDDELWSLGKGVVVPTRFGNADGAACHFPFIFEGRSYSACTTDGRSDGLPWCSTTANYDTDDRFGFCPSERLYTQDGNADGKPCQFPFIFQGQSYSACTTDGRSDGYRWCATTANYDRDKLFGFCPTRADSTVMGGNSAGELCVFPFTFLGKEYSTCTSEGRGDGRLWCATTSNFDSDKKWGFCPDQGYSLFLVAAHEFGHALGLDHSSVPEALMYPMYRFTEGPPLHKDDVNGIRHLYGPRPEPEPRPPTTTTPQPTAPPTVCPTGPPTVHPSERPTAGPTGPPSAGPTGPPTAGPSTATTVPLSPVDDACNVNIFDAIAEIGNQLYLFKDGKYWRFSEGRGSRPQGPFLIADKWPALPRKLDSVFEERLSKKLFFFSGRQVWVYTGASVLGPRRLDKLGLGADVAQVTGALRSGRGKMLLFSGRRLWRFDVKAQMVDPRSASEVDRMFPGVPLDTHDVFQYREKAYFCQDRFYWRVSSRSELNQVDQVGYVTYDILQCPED

[5] = target: T1, MT1-MMP (MMP-14) catalytic domain; assay: inhibition of fluorogenic peptide cleavage, fit to competitive inhibition; catalytic domain of MT1-MMP (FIG. 12B)
[6] = target: T3, full length APMA activated MMP-2 (human) (human, UniProt P08253 110-660); assay: inhibition of fluorogenic peptide cleavage, fit assuming competitive inhibition; full length APMA activated MMP-2 (FIG. 5)
T3 construct: mature; Active enzyme lacking the pro domain; also called full length MMP2 purified from Hila cells; active MMP-2
T3 sequence (looked up): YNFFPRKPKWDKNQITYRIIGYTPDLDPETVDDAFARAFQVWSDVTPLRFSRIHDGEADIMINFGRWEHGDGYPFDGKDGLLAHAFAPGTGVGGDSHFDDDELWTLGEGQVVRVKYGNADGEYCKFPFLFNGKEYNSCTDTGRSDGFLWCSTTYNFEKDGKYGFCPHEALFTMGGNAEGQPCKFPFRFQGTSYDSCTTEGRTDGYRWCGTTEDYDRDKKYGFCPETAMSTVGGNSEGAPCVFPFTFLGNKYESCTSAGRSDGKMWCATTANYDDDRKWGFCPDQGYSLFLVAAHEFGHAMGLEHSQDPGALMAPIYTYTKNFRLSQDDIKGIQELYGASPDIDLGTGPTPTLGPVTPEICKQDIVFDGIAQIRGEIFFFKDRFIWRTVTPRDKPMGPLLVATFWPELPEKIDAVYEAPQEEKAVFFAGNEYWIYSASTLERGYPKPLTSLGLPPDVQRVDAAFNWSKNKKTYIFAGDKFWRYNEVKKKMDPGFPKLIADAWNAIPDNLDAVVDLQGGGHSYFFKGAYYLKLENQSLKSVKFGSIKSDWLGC

[7] = target: T2, MMP-9 catalytic domain (recombinant …); assay: inhibition of fluorogenic peptide cleavage, fit to competitive inhibition; MMP-9 recombinant catalytic fragment (FIG. 12A)
[8] = target: T3, full length APMA activated MMP-2 (human); assay: inhibition of fluorogenic peptide cleavage, fit to competitive inhibition; full length MMP2 purified from HeLa cells (FIG. 12B)
[9] = target: MMP-2 (active; construct not stated at that place) (Mus musculus (Mouse), UniProt P33434 110-467, catalytic and structural zinc and calcium ions are bound; the letters cannot show them); assay: cell-based or functional assay
[10] = target: T4, MMP-2 catalytic domain (MMP-2cat), amino acids 110-467 of GenBank NP-032636.1 (UniProt P33434 110-467); assay: enzyme kinetics with fluorogenic peptide substrate, Lineweaver-Burk plot, competitive inhibition; MMP-2cat (FIG. 4A)
T4 construct: range 110-467; also called MMP2 catalytic fragment; recombinant MMP-2 catalytic domain

[11] = target: T5, full length APMA activated MMP-9 (human) (human, UniProt P14780 107-707); assay: enzyme kinetics with fluorogenic peptide substrate, Lineweaver-Burk plot, competitive inhibition; full length APMA activated MMP-9 (FIG. 4B)
T5 construct: mature; Active enzyme lacking the pro domain; also called active MMP-9 (full length)
T5 sequence (P14780 107-707): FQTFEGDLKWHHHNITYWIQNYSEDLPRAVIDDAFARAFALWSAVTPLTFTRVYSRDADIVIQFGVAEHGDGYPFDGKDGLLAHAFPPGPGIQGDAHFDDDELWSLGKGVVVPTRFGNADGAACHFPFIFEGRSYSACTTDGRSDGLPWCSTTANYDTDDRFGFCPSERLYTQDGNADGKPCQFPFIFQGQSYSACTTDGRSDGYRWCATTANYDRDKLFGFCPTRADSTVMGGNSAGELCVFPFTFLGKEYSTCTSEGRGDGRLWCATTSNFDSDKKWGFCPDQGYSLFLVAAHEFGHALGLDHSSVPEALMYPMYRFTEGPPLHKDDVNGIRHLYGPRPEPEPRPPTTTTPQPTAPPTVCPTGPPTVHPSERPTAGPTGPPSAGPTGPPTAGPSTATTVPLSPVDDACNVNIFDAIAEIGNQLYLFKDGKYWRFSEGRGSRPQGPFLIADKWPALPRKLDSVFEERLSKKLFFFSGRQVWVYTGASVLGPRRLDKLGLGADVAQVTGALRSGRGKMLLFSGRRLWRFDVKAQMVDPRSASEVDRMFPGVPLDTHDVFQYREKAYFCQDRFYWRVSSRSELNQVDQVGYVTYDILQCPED

Chain of TNF-alpha-converting enzyme (TACE, ADAM-17) (P78536 215-671 limits assumed): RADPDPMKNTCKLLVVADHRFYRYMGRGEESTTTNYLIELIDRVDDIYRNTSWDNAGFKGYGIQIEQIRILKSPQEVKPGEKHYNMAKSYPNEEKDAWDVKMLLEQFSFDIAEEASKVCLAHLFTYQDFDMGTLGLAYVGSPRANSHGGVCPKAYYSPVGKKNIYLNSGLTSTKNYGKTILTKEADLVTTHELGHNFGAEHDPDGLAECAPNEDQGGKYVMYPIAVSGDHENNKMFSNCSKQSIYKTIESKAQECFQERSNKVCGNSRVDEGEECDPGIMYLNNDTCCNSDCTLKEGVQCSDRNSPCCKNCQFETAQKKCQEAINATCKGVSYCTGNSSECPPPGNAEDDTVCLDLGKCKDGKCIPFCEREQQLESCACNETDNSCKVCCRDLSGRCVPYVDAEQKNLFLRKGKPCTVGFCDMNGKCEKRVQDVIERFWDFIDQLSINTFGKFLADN

Binder	IC50 µM, inhibition of fluorogenic peptide cleavage [1] [µM]	IC50 µM, inhibition of fluorogenic peptide cleavage [2] [µM]	Ki [3] [µM]	Ki [4] [µM]	Ki [5] [µM]	Ki [6] [µM]	Ki [7] [µM]	Ki [8] [µM]	IC50 µM, inhibition of fluorogenic peptide cleavage [9] [µM]	Ki [10] [µM]	Ki [11] [µM]
6C6 monoclonal antibody (anti Imisdp mAb) (antibody, V domains shown) VH: CGGGLVKPGGSLKLSCAASGFAFSTYDMETSWIRQTPEKRLEWVATISSGGSCYTYYPDSVKGRFTISKDNARNTLYLQMETSSLRSGDTALYYCTRFRYDGWYFDVWGQG VL: CMETTQTPLSLPVSLGDQASISCRSSQSIVHSNGNTFLEWYLQKPGQSPKLLIYKVSNCRFSGVPDRFSGSGSGTDFTLKISRVEAEDLGVYYCFQASHVPPTFGGG	14.4	> 30	10	5.8	14.4	3	1	1.4			
13E11 monoclonal antibody (anti CoTCPP mAb) (antibody, V domains shown) VH: EGGGLVQPGGSRKLSCAASGFTFTSFGMHWVRQAPEKGLEWVAYISSGNEIIYYADTVKGRFTISRDNPKNTLFLQMTSLRSEDTAMYYCARNYYRYGFYVMDYWGQG VL: EIVVTQSPAILSASPGEKVTMTCRASSSVSYMHWYQQKPGSSPKPWIYATSNELASGVPARFSGSGSGTSYSLTISRVEAEDAATYYCQQWISNPLTFGAG	> 30	> 30							24	24	13
